According to the supplement of paper PMC7877785:
± gives the uncertainty stated by the source.

Assay: self-splicing fitness, log relative to wild type (ln ratio); higher = more splicing; Tetrahymena group I intron in knt gene, E. coli kanamycin selection, DiMSum; sequences stand for … in CUCUCU…GGAGGGAAAAGUUAUCAGGCAUGCACCUGGUAGCUAGUCUUUAAACCAAUAGAUUGCAUCGGUUUAAAAGGCAAGACCGUCAAAUUGCGGGAAAGGGGUCAACAGCCGUUCAGUACCAAGUCUCAGGGGAAACUUUGAGAUGGCCUUGCAAAGGGUAUGGUAAUAAGCUGACGGACAUGGUCCUAACCACGCAGCCAAGUCCUAAGUCAACAGAUCUUCUGUUGAUAUGGAUGCAGUUCACAGACUAAAUGUCGGUCGGGGAAGAUGUAUUCUUCUCAUAAGAUAUAGUCGGACCUCUCCUUAAUGGGAGCUAGCGGAUGAAGUGAUGCAACACUGGAGCCGCUGGGAACUAAUUUGUAUGCGAAAGUAUAUUGAUUAGUUUUGGAGUACUCGUGGUCG
Procedure, shortened: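 Library with all eight P1ex-region intron nucleotides randomised, intron inside the knt kanamycin-resistance gene on pET-22b(+), in E. coli BL21(DE3). Cells grew overnight at 37°C or 30°C on LB agar with or without 25 μg/mL kanamycin (plus 100 μg/mL carbenicillin, 50 μM IPTG, 0.2% rhamnose), in six replicate transformations. Pooled colonies were amplicon-sequenced on Illumina HiSeq 2500. DiMSum fitness is the error-weighted combination of wild-type-normalised replicate fold changes, kanamycin versus none.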

| Sequence | self-splicing fitness (ln) (30 °C) | self-splicing fitness (ln) (37 °C) |
| --- | --- | --- |
| CGCAAGCAAUAUUACGUUUG | -4.31 ± 0.26 | -2.8 ± 0.24 |
| CGCCAGCAAUAUUACGAAUA | -3.44 ± 0.34 | – |
| CGCCAGCAAUAUUACGACAA | -2.46 ± 0.31 | -0.75 ± 0.15 |
| CGCCAGCAAUAUUACGACCC | -1.84 ± 0.21 | -1.46 ± 0.39 |
| CGCCAGCAAUAUUACGACGG | -1.65 ± 0.11 | -0.853 ± 0.12 |
| CGCCAGCAAUAUUACGAGCA | -0.418 ± 0.064 | 0.817 ± 0.092 |
| CGCCAGCAAUAUUACGAUGA | -2.2 ± 0.12 | -1.48 ± 0.13 |
| CGCCAGCAAUAUUACGAUUU | -2.75 ± 0.19 | -2.62 ± 0.2 |
| CGCCAGCAAUAUUACGCAAG | -1.03 ± 0.077 | -0.526 ± 0.091 |
| CGCCAGCAAUAUUACGCCAU | – | -2.11 ± 0.46 |
| CGCCAGCAAUAUUACGCGAC | -3.18 ± 0.21 | -2.15 ± 0.17 |
| CGCCAGCAAUAUUACGCGAG | -4.1 ± 0.18 | -2.97 ± 0.25 |
| CGCCAGCAAUAUUACGCUCC | -0.395 ± 0.13 | -1.36 ± 0.2 |
| CGCCAGCAAUAUUACGCUGG | -3.22 ± 0.17 | -2.2 ± 0.18 |
| CGCCAGCAAUAUUACGCUUC | -2.77 ± 0.26 | -3.27 ± 0.37 |
| CGCCAGCAAUAUUACGGAAC | -2.64 ± 0.23 | -1.52 ± 0.24 |
| CGCCAGCAAUAUUACGGACA | -0.882 ± 0.11 | -0.254 ± 0.11 |
| CGCCAGCAAUAUUACGGAUA | -1.77 ± 0.18 | -1.32 ± 0.21 |
| CGCCAGCAAUAUUACGGAUG | -2.64 ± 0.1 | -1.25 ± 0.087 |
| CGCCAGCAAUAUUACGGAUU | -3.66 ± 0.19 | -0.897 ± 0.097 |
| CGCCAGCAAUAUUACGGGAA | -2.84 ± 0.12 | -1.64 ± 0.1 |
| CGCCAGCAAUAUUACGGGAU | -3.96 ± 0.27 | -2.32 ± 0.28 |
| CGCCAGCAAUAUUACGGGUU | -2.64 ± 0.1 | -2.18 ± 0.12 |
| CGCCAGCAAUAUUACGGUGA | -1.98 ± 0.11 | -1.84 ± 0.11 |
| CGCCAGCAAUAUUACGUAUC | -3.94 ± 0.33 | -3.92 ± 0.42 |

| Sequence | self-splicing fitness (ln) (30 °C) | self-splicing fitness (ln) (37 °C) |
| --- | --- | --- |
| CGCCAGCAAUAUUACGUCUU | -3.58 ± 0.25 | -1.45 ± 0.2 |
| CGCCAGCAAUAUUACGUGAA | -1.76 ± 0.1 | -1.1 ± 0.14 |
| CGCCAGCAAUAUUACGUUCC | -2.71 ± 0.16 | -1.67 ± 0.37 |
| CGCCAGCAAUAUUACGUUCG | -1.18 ± 0.069 | 0.325 ± 0.086 |
| CGCGAGCAAUAUUACGAAGC | – | -1.75 ± 0.45 |
| CGCGAGCAAUAUUACGACAG | -0.942 ± 0.11 | -0.403 ± 0.16 |
| CGCGAGCAAUAUUACGACCA | -1.71 ± 0.26 | -2.4 ± 0.29 |
| CGCGAGCAAUAUUACGACGA | – | -0.89 ± 0.35 |
| CGCGAGCAAUAUUACGAGAA | – | -2.08 ± 0.34 |
| CGCGAGCAAUAUUACGAGAG | -2.69 ± 0.18 | -2.92 ± 0.31 |
| CGCGAGCAAUAUUACGAUGC | – | -2.16 ± 0.21 |
| CGCGAGCAAUAUUACGAUUA | -3.1 ± 0.3 | -1.99 ± 0.35 |
| CGCGAGCAAUAUUACGCAAC | -2.25 ± 0.31 | – |
| CGCGAGCAAUAUUACGCAGG | -2.68 ± 0.13 | -1.88 ± 0.15 |
| CGCGAGCAAUAUUACGCAUA | -1.87 ± 0.32 | -2.14 ± 0.43 |
| CGCGAGCAAUAUUACGCAUC | -3.36 ± 0.38 | -0.312 ± 0.28 |
| CGCGAGCAAUAUUACGCCUU | -2.45 ± 0.43 | – |
| CGCGAGCAAUAUUACGCUGG | -1.39 ± 0.18 | -1.31 ± 0.28 |
| CGCGAGCAAUAUUACGGAAU | -3.2 ± 0.2 | -3.01 ± 0.25 |
| CGCGAGCAAUAUUACGGAUG | -2.25 ± 0.17 | -0.671 ± 0.12 |
| CGCGAGCAAUAUUACGGCCU | -2.69 ± 0.26 | -1.65 ± 0.22 |
| CGCGAGCAAUAUUACGGCGA | -2.29 ± 0.24 | -1.19 ± 0.21 |
| CGCGAGCAAUAUUACGGCGU | -4.64 ± 0.34 | -2.9 ± 0.29 |
| CGCGAGCAAUAUUACGGGCA | -0.464 ± 0.084 | -0.0497 ± 0.11 |
| CGCGAGCAAUAUUACGGGUA | -2.5 ± 0.23 | -2.11 ± 0.24 |
